Data as given in patent US20260265360A1, “USE OF ANTI-FAM19A5 ANTAGONISTS FOR TREATING HEARING DISORDERS” (NEURACLE SCIENCE CO., LTD., priority 2023, published 2026).

B1: 1-30: anti-FAM19A5 antibody, de-immunized variant of 3-2; VH SEQ ID NO: 235, VL SEQ ID NO: 240 (antibody, V domains shown)
VH: AVTLDESGGGLQTPGGALRLSCKASGFDFESFNMFWVRQAPGKGLEYVSQISSSEEDENYAPAVKGRATISRDNGQSTLYLQMNSLRAEDTGTYYCAKSSYDCPYGHCSSGVDSAGEIDAWGHGTEVIVSS
VL: ALTQPSSVSANPGETVKITCSGGGSEEEQYYYGWYQQKPGSAPVTLIYQDEERPSDIPSRFSGSTSGSTATLTITGVQAGDEADYYCGSWDSEDEDHFGAGTTLTVL
modifications: Low-PI VH, 1-30 VH, 1-17 VH, 1-32 VH, 4-11 VH, 6-10 VH; 1-30 VL
B2: 2-13: anti-FAM19A5 antibody; VH SEQ ID NO: 35, VL SEQ ID NO: 39 (antibody, V domains shown)
VH: AVTLDESGGGLQTPGGALSLVCKASGFTFSSHGMFWVRQTPGKGLEYVAEITNDGSGTNYGSAVKGRATISRDNGQSTVRLQLNNLRAEDTGTYFCARSTYECPGGFSCWGDTGQIDAWGHGTEVIVSS
VL: ALTQPSSVSANPGETVKITCSGGSYSYGWFQQKSPGSALVTVIYWDDERPSDIPSRFSGALSGSTNTLTITGVQADDEAVYFCGTEDISGTAGVFGAGTTLTVL
modifications: 2-13 VH; 2-13 VL

Columns and labels:
[1] = tested on: inner hair cells of mouse cochlear explants; test: Promotion of synaptogenesis (CtBP2 puncta); assay type: cell-based; settings: antibody 1 μM
Procedure: Cochlear explant were cultured in medium consisting of plating media, which consist of Neurobasal media (Invitrogen), 1% N2 supplement, and 10 μg/mL Ampicillin with culture media with additional 1% FBS.
Postnatal day 4-5 (P4-5) C57BL/6 mice were sacrificed for inner ear dissection. Mouse head was bisected, and brain tissue was removed. Cochlea was carefully separated the from the extraneous bones in ice-cold HBSS (5 mM HEPES/1.3 mM CaCl2), 0.9 mM MgCl2, pH 7.4) or External solution (1.2 mM CaCl2), 1 mM MgCl2, 5 mM HEPES in HBSS). Then the stria vascularis and spiral bone plate was removed, and cochlea was cut into two to three sections. […]
Mouse cochlear explant cultures were treated with FAM19A5, FAM19A5 combined with a FAM19A5 antagonist (e.g., described herein, e.g., 1-30 antibody), or a FAM19A5 antagonist (e.g., described herein, e.g., 1-30 antibody) alone at 1 DIV to determine the level of synaptogenesis at 2 DIV by immunostaining CtBP2, a ribbon synapse marker. To quantify the number of CtBP2 puncta of individual inner hair cells, z-stack confocal images were exported in “multi-page” and the number of CtBP2 puncta from each individual inner hair cells were measured using ROI manger and multi-point tool from Fiji (Image J). Number of CtBP2 puncta from five individual inner hair cells were counted per image and 3 z-stack images were measured from each treatment group. […]

[2] = tested on: human FAM19A5 protein epitope fragments F1-F6; test: Epitope mapping: binding to BSA-conjugated FAM19A5 epitope fragments F1-F6 (Western blot / ELISA); settings: ELISA
Procedure: Overlapping peptide fragments (F1-F6 epitope fragments; SEQ ID NOs: 178-183) of the human FAM19A5 protein were synthesized and conjugated to BSA (SEQ ID NOs: 322-327). Binding of the different anti-FAM19A5 antibodies to the BSA-conjugated peptide fragments F1-F6 was determined by Western blot analysis or ELISA assay. For the Western blot analysis, BSA-conjugated FAM19A5 fragments F1-F6 were separated by SDS polyacrylamide gel electrophoresis and transferred to a nitrocellulose membrane by the standard procedure. The membrane was incubated with the anti-FAM19A5 antibody (e.g., 1-65, […], 1-65-scFv-rabbit Fc-SSS), and the antigen-antibody complexes were detected with the appropriate secondary antibody conjugated with horse-radish peroxidase (anti-rabbit IgG (Fc specific)-HRP, 1:4000 dilution). For the ELISA assay, the following protocol was used. FAM19A5 fragment F1-F6 (diluted to 1 μg/mL in 50 mM carbonate buffer (Biosesang) or to 20 μg/mL for high concentration analysis) were used to coat the wells of 96-well immuno plates (Thermo Scientific) (100 μL/well) overnight at 4° C. and then subsequently washed twice in 1×PBS. The plates were then blocked with the blocking buffer (100 μL/well) for 1 hour at room temperature. During the 1-hour incubation, the relavant anti-FAM19A5 antibodies were diluted to 1 μg/mL (or 20 μg/mL for high concentration analysis) in the diluent buffer. Once the plates were washed (2× using 1×PBS), the diluted anti-FAM19A5 antibodies were added to the appropriate wells, and the plates were incubated at room temperature for 1 hour. The plates were subsequently washed for a total of five times using the washing buffer. Next, the ODP substrate (prepared by dissolving one ODP tablet (O-phenylenediamine Dihydrochloride, Thermo) into 9 mL of sterilized deionized water and 1 mL of 10× stable Peroxide Stable buffer (Theromo)) was added to each of the wells, and the color change reaction was allowed to occur for 10 minutes. This reaction was stopped by adding 100 μL of 2N H2SO4 (Daejung) to the wells. The absorption value of each of the wells was detected at 492 nm using a 96-well microplate reader (Molecular Device).

Molecule | number of CtBP2 puncta within the inner hair cells vs control human IgG [1] | binding to any of the epitope fragments F1-F6 [2]
B1 | significant increase | –
B2 | – | did not appear to bind
